Tests used:
[1] = molecular target: Carbapenem-hydrolyzing beta-lactamase KPC (Klebsiella pneumoniae, UniProt Q9F663); experiment: Inhibition of Klebsiella pneumoniae KPC-1 beta lactamase expressed in Escherichia coli DH5alpha by SDS-PAGE
[2] = substrate: C[C@H]1[C@H](NC(=O)/C(=N\OC(C)(C)C(=O)O)c2csc(N)n2)C(=O)N1S(=O)(=O)O; experiment: (§1) Activity of Klebsiella pneumoniae KPC-1 beta lactamase expressed in Escherichia coli DH5alpha by SDS-PAGE
[3] = substrate: CO/N=C(\C(=O)N[C@@H]1C(=O)N2C(C(=O)O)=C(COC(C)=O)CS[C@H]12)c1csc(N)n1; experiment: as §1
[4] = substrate: CO[C@@]1(NC(=O)Cc2cccs2)C(=O)N2C(C(=O)O)=C(COC(N)=O)CS[C@@H]21; experiment: as §1
[5] = substrate: C[C@@H](O)[C@H]1C(=O)N2C(C(=O)O)=C(S[C@@H]3CN[C@H](C(=O)N(C)C)C3)[C@H](C)[C@H]12; experiment: as §1
[6] = substrate: CC1(C)S[C@@H]2[C@H](NC(=O)[C@H](N)c3ccccc3)C(=O)N2[C@H]1C(=O)O; experiment: as §1
[7] = substrate: CC(=O)OCC1=C(C(=O)O)N2C(=O)[C@@H](NC(=O)Cc3cccs3)[C@H]2SC1; experiment: as §1
[8] = substrate: C[C@@H](O)[C@H]1C(=O)N2C(C(=O)O)=C(SCCNC=N)C[C@H]12; experiment: as §1
[9] = substrate: CCN1CCN(C(=O)N[C@@H](C(=O)N[C@@H]2C(=O)N3[C@@H]2SC(C)(C)[C@@H]3C(=O)O)c2ccccc2)C(=O)C1=O; experiment: as §1
[10] = substrate: CC(C)(O/N=C(\C(=O)N[C@@H]1C(=O)N2C(C(=O)[O-])=C(C[n+]3ccccc3)CS[C@H]12)c1csc(N)n1)C(=O)O; experiment: as §1
[11] = substrate: C[C@H]1[C@H](NC(=O)/C(=N\OC(C)(C)C(=O)O)c2csc(N)n2)C(=O)N1S(=O)(=O)O; experiment: (§2) Ratio of Kcat to Km for Klebsiella pneumoniae KPC-1 beta lactamase expressed in Escherichia coli DH5alpha by SDS-PAGE
[12] = substrate: CO/N=C(\C(=O)N[C@@H]1C(=O)N2C(C(=O)O)=C(COC(C)=O)CS[C@H]12)c1csc(N)n1; experiment: as §2
[13] = substrate: CO[C@@]1(NC(=O)Cc2cccs2)C(=O)N2C(C(=O)O)=C(COC(N)=O)CS[C@@H]21; experiment: as §2
[14] = substrate: C[C@@H](O)[C@H]1C(=O)N2C(C(=O)O)=C(S[C@@H]3CN[C@H](C(=O)N(C)C)C3)[C@H](C)[C@H]12; experiment: as §2
[15] = substrate: CC1(C)S[C@@H]2[C@H](NC(=O)[C@H](N)c3ccccc3)C(=O)N2[C@H]1C(=O)O; experiment: as §2
[16] = substrate: CC(=O)OCC1=C(C(=O)O)N2C(=O)[C@@H](NC(=O)Cc3cccs3)[C@H]2SC1; experiment: as §2
[17] = substrate: C[C@@H](O)[C@H]1C(=O)N2C(C(=O)O)=C(SCCNC=N)C[C@H]12; experiment: as §2
[18] = substrate: CCN1CCN(C(=O)N[C@@H](C(=O)N[C@@H]2C(=O)N3[C@@H]2SC(C)(C)[C@@H]3C(=O)O)c2ccccc2)C(=O)C1=O; experiment: as §2
[19] = substrate: CC(C)(O/N=C(\C(=O)N[C@@H]1C(=O)N2C(C(=O)[O-])=C(C[n+]3ccccc3)CS[C@H]12)c1csc(N)n1)C(=O)O; experiment: as §2

Q: How did the IC50 [1] turn out when `C[C@]1(Cn2ccnn2)[C@H](C(=O)O)N2C(=O)C[C@H]2S1(=O)=O` [TAZOBACTAM] was run?
A: 374 nM

B1: Carbapenem-hydrolyzing beta-lactamase KPC (Klebsiella pneumoniae), Q9F663 (protein)
chain: MSLYRRLVLLSCLSWPLAGFSATALTNLVAEPFAKLEQDFGGSIGVYAMDTGSGATVSYRAEERFPLCSSFKGFLAAAVLARSQQQAGLLDTPIRYGKNALVPWSPISEKYLTTGMTVAELSAAAVQYSDNAAANLLLKELGGPAGLTAFMRSIGDTTFRLDRWELELNSAIPGDARDTSSPRAVTESLQKLTLGSALAAPQRQQFVDWLKGNTTGNHRIRAAVPADWAVGDKTGTCGVYGTANDYAVVWPTGRAPIVLAVYTRAPNKDDKHSEAVIAAAARLALEGLGVNGQ
Q: Which results are given for B1?
A: Km [2]: 310 µM; kcat [2]: 20 s⁻¹; Km [3]: 160 µM; kcat [3]: 14 s⁻¹; Km [4]: 120 µM; kcat [4]: 0.26 s⁻¹; Km [5]: 12 µM; kcat [5]: 3 s⁻¹; Km [6]: 130 µM; kcat [6]: 110 s⁻¹; Km [7]: 53 µM; kcat [7]: 75 s⁻¹; Km [8]: 81 µM; kcat [8]: 12 s⁻¹; Km [9]: 18 µM; kcat [9]: 24 s⁻¹; Km [10]: 94 µM; kcat [10]: 0.1 s⁻¹; kcat/Km [11]: 70000 M⁻¹ s⁻¹; kcat/Km [12]: 90000 M⁻¹ s⁻¹; kcat/Km [13]: 2000 M⁻¹ s⁻¹; kcat/Km [14]: 250000 M⁻¹ s⁻¹; kcat/Km [15]: 850000 M⁻¹ s⁻¹; kcat/Km [16]: 1.4e+06 M⁻¹ s⁻¹; kcat/Km [17]: 150000 M⁻¹ s⁻¹; kcat/Km [18]: 1.33e+06 M⁻¹ s⁻¹; kcat/Km [19]: 1000 M⁻¹ s⁻¹

From ChEMBL document CHEMBL1137666, “Biochemical Characterization of SFC-1, a class A carbapenem-hydrolyzing beta-lactamase” (Antimicrob Agents Chemother, 2007)
